Laboratory results taken from the Human Domainome abundance scans (Beltran et al. 2025).
± gives the uncertainty stated by the source.

assay: abundance fitness (aPCA) (normalised: wild type 0, dead -1); higher = more abundant; growth selection in yeast, the domain comes from the species named; settings: Homo sapiens

| Substance | abundance fitness |
| --- | --- |
| BAG family molecular chaperone regulator 3 W36T, O95817 | 1.25 ± 0.32 |
| BAG family molecular chaperone regulator 3 G35P, O95817 | -0.237 ± 0.21 |
| SAFB-like transcription modulator E59T, Q9NWH9 | -0.323 ± 0.073 |
| BAG family molecular chaperone regulator 3 K29V, O95817 | -0.266 ± 0.11 |
| SAFB-like transcription modulator K31I, Q9NWH9 | 0.131 ± 0.064 |
| BAG family molecular chaperone regulator 3 E27Q, O95817 | -0.222 ± 0.3 |
| BAG family molecular chaperone regulator 3 S56T, O95817 | 0.208 ± 0.16 |
| BAG family molecular chaperone regulator 3 D51L, O95817 | -0.859 ± 0.2 |
| BAG family molecular chaperone regulator 3 K29H, O95817 | -0.686 ± 0.16 |
| BAG family molecular chaperone regulator 3 G15P, O95817 | 0.603 ± 0.15 |
| SAFB-like transcription modulator R37I, Q9NWH9 | -1.07 ± 0.16 |
| BAG family molecular chaperone regulator 3 E27M, O95817 | -0.714 ± 0.19 |
| SAFB-like transcription modulator L25P, Q9NWH9 | -0.718 ± 0.071 |
| BAG family molecular chaperone regulator 3 N50T, O95817 | -0.435 ± 0.11 |
| BAG family molecular chaperone regulator 3 L22V, O95817 | 0.078 ± 0.068 |
| SAFB-like transcription modulator K53T, Q9NWH9 | -0.03 ± 0.084 |
| SAFB-like transcription modulator N65T, Q9NWH9 | -0.281 ± 0.059 |
| SAFB-like transcription modulator D62H, Q9NWH9 | -0.253 ± 0.077 |
| SAFB-like transcription modulator D64F, Q9NWH9 | -0.144 ± 0.048 |
| BAG family molecular chaperone regulator 3 V40M, O95817 | 0.03 ± 0.16 |
| SAFB-like transcription modulator G19V, Q9NWH9 | 0.053 ± 0.072 |
| BAG family molecular chaperone regulator 3 E27G, O95817 | -0.54 ± 0.14 |
| BAG family molecular chaperone regulator 3 Q11Y, O95817 | 0.795 ± 0.15 |
| BAG family molecular chaperone regulator 3 R19N, O95817 | -0.125 ± 0.13 |

| Substance | abundance fitness |
| --- | --- |
| BAG family molecular chaperone regulator 3 Q33A, O95817 | 0.032 ± 0.15 |
| SAFB-like transcription modulator D24E, Q9NWH9 | -0.003 ± 0.038 |
| BAG family molecular chaperone regulator 3 V40F, O95817 | -0.533 ± 0.4 |
| BAG family molecular chaperone regulator 3 W49G, O95817 | -0.748 ± 0.15 |
| BAG family molecular chaperone regulator 3 W49R, O95817 | -0.226 ± 0.1 |
| BAG family molecular chaperone regulator 3 G58D, O95817 | 0.238 ± 0.18 |
| BAG family molecular chaperone regulator 3 V40Q, O95817 | -0.642 ± 0.13 |
| SAFB-like transcription modulator T42Q, Q9NWH9 | 0.127 ± 0.1 |
| BAG family molecular chaperone regulator 3 D18C, O95817 | -0.009 ± 0.15 |
| BAG family molecular chaperone regulator 3 G35H, O95817 | 0.552 ± 0.28 |
| BAG family molecular chaperone regulator 3 N16R, O95817 | 0.231 ± 0.065 |
| BAG family molecular chaperone regulator 3 V12H, O95817 | -0.48 ± 0.33 |
| BAG family molecular chaperone regulator 3 G15R, O95817 | 0.737 ± 0.059 |
| BAG family molecular chaperone regulator 3 I28Y, O95817 | -0.19 ± 0.3 |
| SAFB-like transcription modulator E58G, Q9NWH9 | -0.021 ± 0.051 |
| BAG family molecular chaperone regulator 3 V40K, O95817 | -0.64 ± 0.098 |
| SAFB-like transcription modulator I28N, Q9NWH9 | -0.59 ± 0.23 |
| BAG family molecular chaperone regulator 3 N50R, O95817 | -0.034 ± 0.13 |
| SAFB-like transcription modulator K21F, Q9NWH9 | -0.349 ± 0.077 |
| BAG family molecular chaperone regulator 3 P23L, O95817 | -0.858 ± 0.2 |
| BAG family molecular chaperone regulator 3 W26I, O95817 | -0.608 ± 0.34 |
| SAFB-like transcription modulator P63A, Q9NWH9 | -0.23 ± 0.053 |
| BAG family molecular chaperone regulator 3 G17E, O95817 | 0.915 ± 0.077 |
| SAFB-like transcription modulator I22E, Q9NWH9 | -0.57 ± 0.11 |

| Substance | abundance fitness |
| --- | --- |
| BAG family molecular chaperone regulator 3 G25A, O95817 | -0.712 ± 0.17 |
| BAG family molecular chaperone regulator 3 N16H, O95817 | 0.094 ± 0.13 |
| BAG family molecular chaperone regulator 3 K29A, O95817 | -0.37 ± 0.12 |
| SAFB-like transcription modulator L25D, Q9NWH9 | -0.665 ± 0.054 |
| BAG family molecular chaperone regulator 3 S56R, O95817 | 0.007 ± 0.063 |
| BAG family molecular chaperone regulator 3 V54K, O95817 | -0.008 ± 0.14 |
| BAG family molecular chaperone regulator 3 D41L, O95817 | -1.1 ± 0.17 |
| SAFB-like transcription modulator D29E, Q9NWH9 | -0.5 ± 0.13 |
| SAFB-like transcription modulator V27C, Q9NWH9 | -0.067 ± 0.094 |
| BAG family molecular chaperone regulator 3 R45L, O95817 | -0.594 ± 0.18 |
| SAFB-like transcription modulator L52A, Q9NWH9 | -0.702 ± 0.04 |
| BAG family molecular chaperone regulator 3 V12N, O95817 | 0.139 ± 0.15 |
| SAFB-like transcription modulator S32Q, Q9NWH9 | -0.325 ± 0.097 |
| BAG family molecular chaperone regulator 3 K29R, O95817 | -0.17 ± 0.066 |
| BAG family molecular chaperone regulator 3 D31V, O95817 | -0.433 ± 0.12 |
| SAFB-like transcription modulator G61C, Q9NWH9 | -0.164 ± 0.064 |
| SAFB-like transcription modulator Q54K, Q9NWH9 | 0.057 ± 0.1 |
| SAFB-like transcription modulator R51S, Q9NWH9 | -0.511 ± 0.063 |
| SAFB-like transcription modulator K53F, Q9NWH9 | -0.291 ± 0.06 |
| BAG family molecular chaperone regulator 3 V12Y, O95817 | 0.199 ± 0.12 |
| BAG family molecular chaperone regulator 3 I30G, O95817 | -0.44 ± 0.087 |
| BAG family molecular chaperone regulator 3 P23K, O95817 | -0.604 ± 0.094 |
| SAFB-like transcription modulator S32A, Q9NWH9 | -0.147 ± 0.062 |
| BAG family molecular chaperone regulator 3 W26L, O95817 | -0.583 ± 0.14 |

| Substance | abundance fitness |
| --- | --- |
| SAFB-like transcription modulator K21H, Q9NWH9 | -0.33 ± 0.091 |
| BAG family molecular chaperone regulator 3 S14A, O95817 | -0.285 ± 0.14 |
| BAG family molecular chaperone regulator 3 V54E, O95817 | -0.591 ± 0.28 |
| SAFB-like transcription modulator K21C, Q9NWH9 | -0.203 ± 0.058 |
| SAFB-like transcription modulator N38A, Q9NWH9 | -0.296 ± 0.063 |
| SAFB-like transcription modulator E59V, Q9NWH9 | -0.459 ± 0.052 |
| SAFB-like transcription modulator E59W, Q9NWH9 | -1.02 ± 0.089 |
| SAFB-like transcription modulator D64W, Q9NWH9 | -0.068 ± 0.046 |
| BAG family molecular chaperone regulator 3 W49V, O95817 | -0.665 ± 0.13 |
| BAG family molecular chaperone regulator 3 R19T, O95817 | -0.169 ± 0.096 |
| BAG family molecular chaperone regulator 3 G15F, O95817 | 0.641 ± 0.083 |
| SAFB-like transcription modulator T23C, Q9NWH9 | -0.083 ± 0.042 |
| BAG family molecular chaperone regulator 3 I28E, O95817 | 0.316 ± 0.11 |
| BAG family molecular chaperone regulator 3 K29L, O95817 | -0.376 ± 0.091 |
| SAFB-like transcription modulator G61S, Q9NWH9 | -0.23 ± 0.049 |
| SAFB-like transcription modulator I56C, Q9NWH9 | -0.18 ± 0.083 |
| SAFB-like transcription modulator I41Y, Q9NWH9 | -0.172 ± 0.11 |
| BAG family molecular chaperone regulator 3 E27R, O95817 | -0.742 ± 0.15 |
| BAG family molecular chaperone regulator 3 I28G, O95817 | -0.088 ± 0.08 |
| BAG family molecular chaperone regulator 3 E57L, O95817 | -0.468 ± 0.094 |
| BAG family molecular chaperone regulator 3 N43C, O95817 | -0.681 ± 0.38 |
| BAG family molecular chaperone regulator 3 L22F, O95817 | -0.069 ± 0.18 |
| BAG family molecular chaperone regulator 3 D20Y, O95817 | -0.479 ± 0.3 |
